Experimental data: patent publication US20220227830A1, “QD DOSING OF GIP RECEPTOR AGONIST PEPTIDE COMPOUNDS AND USES THEREOF” (Takeda Pharmaceutical Company Limited, priority 2020, published 2022)
Starred links: 1 amine or outer side, 2 acyl side, 3 side chain; linkers in the order of their positions; H or OH if unused. Non-standard residues stand in square brackets, D forms with d. Groups on a side chain read outwards from the residue. No end group written: not given here. *: point of attachment. 2OEGgE‑C16DA = O=C(O)CCCCCCCCCCCCCCC(=O)N[C@@H](CCC(=O)NCCOCCOCC(=O)NCCOCCOCC(=O)*)C(=O)O; 2OEGgE = O=C(CC[C@H](N[*:1])C(=O)O)NCCOCCOCC(=O)NCCOCCOCC(=O)[*:2]; G2E3 = linker of 2 Gly and 3 Glu (read GGEEE); C16 diacid = O=C(O)CCCCCCCCCCCCCCC(=O)*; C15 diacid = O=C(O)CCCCCCCCCCCCCC(=O)*; γGlu = O=C(O)[C@H](CCC(=O)[*:2])N[*:1]; NMeY = CN[C@@H](Cc1ccc(O)cc1)C(=O)O; AEEA = NCCOCCOCC(=O)O; Aib = CC(C)(N)C(=O)O

T1: full-length human GIPR with an N-terminal FLAG tag (human, UniProt P48546 22-466)
T1 sequence (looked up): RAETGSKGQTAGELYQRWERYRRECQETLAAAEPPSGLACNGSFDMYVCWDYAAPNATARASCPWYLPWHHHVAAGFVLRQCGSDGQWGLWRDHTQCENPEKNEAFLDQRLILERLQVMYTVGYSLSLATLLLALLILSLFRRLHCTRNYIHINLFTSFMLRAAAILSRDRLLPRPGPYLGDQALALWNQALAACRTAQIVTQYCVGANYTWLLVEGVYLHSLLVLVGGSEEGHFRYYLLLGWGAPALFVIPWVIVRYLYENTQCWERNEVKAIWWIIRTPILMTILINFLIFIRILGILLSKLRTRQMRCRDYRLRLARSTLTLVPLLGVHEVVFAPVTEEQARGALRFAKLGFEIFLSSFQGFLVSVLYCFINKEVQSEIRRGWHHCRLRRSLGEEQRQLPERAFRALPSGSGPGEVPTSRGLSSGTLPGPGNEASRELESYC


Columns and labels:
[1] = biological target: full-length human GLP-1R with an N-terminal FLAG tag (human, UniProt P43220 24-463); assay: cell-based or functional assay
[2] = biological target: T1, full-length human GIPR with an …; assay: cell-based or functional assay

Binder	Human GLP1R cAMP HEK293T EC50 [1]	Human GIPR cAMP, HEK293T EC50 [2]
[NMeY][Aib]EGTFISDYSIALDRIHQK([AEEA-AEEA-γGlu-C16 diacid])NFVNWLLAQK (not fully specified) [Compound 4]	692 nM	0.0005 nM
Y[Aib]EGTFISDYSIAKDR[Aib]AQ[Aib]NFVNWLLAQSPSSGAPPPS-OH (not fully specified (residues 1, 14); also: Me-Tyr methyl position not given here) [Compound 51]	1000 nM	0.0003 nM
[NMeY][Aib]EGTFISDYSIALDR[Aib]AQ[Aib]NFVNWLLAQKPSSGAPPPS-OH (not fully specified (residue 30)) [Compound 52]	240 nM	0.0003 nM
[NMeY][Aib]EGTFISDYSIALDRK([G2E3-C15 diacid])AQ[Aib]NFVNWLLAQSPSSGAPPPS-OH (also: Me-Tyr methyl position not given here) [Compound 53]	617 nM	0.0001 nM
[NMeY][Aib]EGTFISDYSIALDRIHQK([AEEA-AEEA-γGlu-C15 diacid])NFVNWLLAQK (also: Me-Tyr methyl position not given here) [Compound 5]	955 nM	0.0008 nM
[NMeY][Aib]EGTFISDYSIALDR[Aib]K([G2E3-C15 diacid])Q[Aib]NFVNWLLAQSPSSGAPPPS-OH (not fully specified) [Compound 55]	240 nM	0.0002 nM
Y[Aib]EGTFISDYSI[Aib]KDR[Aib]AQ[Aib]NFVNWLLAQRPSSGAPPPS-OH (not fully specified (residues 1, 14)) [Compound 56]	263 nM	0.0003 nM
[NMeY][Aib]EGTFISDYSIALDRKHQ[Aib]NFVNWLLAQRPSSGAPPPS-NH2 (not fully specified (residue 17)) [Compound 63]	141 nM	0.0002 nM
[NMeY][Aib]EGTFISDYSIALDRKHQ[Aib]NFVNWLLAQSPSSGAPPPS-NH2 (not fully specified (residue 17)) [Compound 64]	1000 nM	0.0005 nM
[NMeY][Aib]EGTFISDYSIALDRKHQ[Aib]NFVNWLLAQSPSSGAPPPS-NH2 (not fully specified (residue 17)) [Compound 65]	129 nM	0.0003 nM
YXEGTFISDYSIALDRXHQXDFVNWLLAQRPSSGAPPPS (not fully specified; Me-Tyr1; Aib 2,20; Km17 = Lys(gEgE-C15DA); C-term NH2) [Compound 66]	1000 nM	0.0004 nM
YXEGTFISDYSIALDRXHQXDFVNWLLAQRPSSGAPPPS (not fully specified; Me-Tyr1; Aib 2,20; Km17 = Lys(gE-C15DA); C-term NH2) [Compound 67]	525 nM	0.0006 nM
YXEGTFISDYSIALDRXHQXDFVNWLLAQSPSSGAPPPS (not fully specified; Me-Tyr1; Aib 2,20; Km17 = Lys(linker printed 'GS'-C15DA); C-term NH2) [Compound 68]	200 nM	0.0007 nM
YXEGTFISDYSIALDRXHQXDFVNWLLAQSPSSGAPPPS (not fully specified; Me-Tyr1; Aib 2,20; Km17 = Lys(gE-C15DA); C-term NH2) [Compound 69]	1000 nM	0.0004 nM
[NMeY]GEGTFISDYSIAK([2OEGgE-C16 diacid])DRIHQ[Aib]NFVNWLLAQK (not fully specified) [Compound 6]	692 nM	0.0537 nM
[NMeY][Aib]EGTFISDYSIALDR[Aib]AQ[Aib]NFVNWLLAQK([OEGgEgE-C15 diacid])PSSGAPPPS-NH2 [Compound 70]	91.2 nM	0.0009 nM
[NMeY][Aib]EGTFISDYSIALDR[Aib]K([G5gE-C15 diacid])Q[Aib]NFVNWLLAQSPSSGAPPPS-NH2 [Compound 71]	955 nM	0.0006 nM
[NMeY][Aib]EGTFISDYSIALDR[Aib]K([G5gE-C15 diacid])Q[Aib]DFVNWLLAQRPSSGAPPPS-NH2 [Compound 73]	1000 nM	0.0005 nM
[NMeY][Aib]EGTFISDYSIALDR[Aib]K([G5gE-C15 diacid])Q[Aib]DFVNWLLAQSPSSGAPPPS-NH2 [Compound 74]	550 nM	0.0004 nM
[NMeY][Aib]EGTFISDYSIAK(2OEGgE‑C16DA)DR[Aib]AQQNFVNWLLAQK [Compound 1]	871 nM	
[NMeY][Aib]EGTFISDYSIALDR[Aib]AQ[Aib]K([AEEA-AEEA-γGlu-γGlu-C15 diacid])FVNWLLAQKG-OH (N-terminus assumed; SMILES CC[C@H](C)[C@H](NC(=O)[C@H](CO)NC(=O)[C@H](Cc1ccc(O)cc1)NC(=O)[C@H](CC(=O)O)NC(=O)[C@H](CO)NC(=O)[C@@H](NC(=O)[C@H](Cc1ccccc1)NC(=O)[C@@H](NC(=O)CNC(=O)[C@H](CCC(=O)O)NC(=O)C(C)(C)NC(=O)[C@H](Cc1ccc(O)cc1)NC)[C@@H](C)O)[C@@H](C)CC)C(=O)N[C@@H](C)C(=O)N[C@@H](CC(C)C)C(=O)N[C@@H](CC(=O)O)C(=O)N[C@@H](CCCNC(=N)N)C(=O)NC(C)(C)C(=O)N[C@@H](C)C(=O)N[C@@H](CCC(N)=O)C(=O)NC(C)(C)C(=O)N[C@@H](CCCCNC(=O)COCCOCCNC(=O)COCCOCCNC(=O)CC[C@H](NC(=O)CC[C@H](NC(=O)CCCCCCCCCCCCCC(=O)O)C(=O)O)C(=O)O)C(=O)N[C@@H](Cc1ccccc1)C(=O)N[C@H](C(=O)N[C@@H](CC(N)=O)C(=O)N[C@@H](Cc1c[nH]c2ccccc12)C(=O)N[C@@H](CC(C)C)C(=O)N[C@@H](CC(C)C)C(=O)N[C@@H](C)C(=O)N[C@@H](CCC(N)=O)C(=O)N[C@@H](CCCCN)C(=O)NCC(=O)O)C(C)C) [Compound 25]		0.0005 nM
[NMeY][Aib]EGTFISDYSIAKDR[Aib]AQQNFVNWLLAQK (not fully specified (residue 14, N-terminus)) [Compound 2]	1000 nM	
[NMeY][Aib]EGTFISDYSIALDK[Aib]AQ[Aib]NFVNWLLAK([AEEA-AEEA-γGlu-C15 diacid])S-OH (not fully specified) [Compound 35]		0.0003 nM
[NMeY][Aib]EGTFISDYSIAKDR[Aib]AQQNFVNWLLAQK (not fully specified (residue 14)) [Compound 3]	692 nM	
Y[Aib]EGTFISDYSIAK([G2E3-C15 diacid])DR[Aib]AQ[Aib]NFVNWLLAQRPSSGAPPPS-OH (not fully specified (residue 1); also: Me-Tyr methyl position not given here) [Compound 49]		0.0002 nM
